# The RNAGym collection of RNA variant scans (doi:10.1073/pnas.2313332121)
# B1: TPR t1 (parent)
# chain: GACCAAUCUGCCCUCAGAGCUCGAGAACAUCUUCGGAUGCAGAGGAGGCAGGCUUCGGUGGCGCGAUAGCGCCAACGUCCUCAACCUCCAAUGCAUCCCACCACAUGAUGAUGCCUGAAGAGCCUUGGUUUUUUG
# Variants of: B1
# Assay: polymerase ribozyme fitness, log enrichment relative to wild type (log ratio); higher = more active; in vitro selection for triplet polymerase activity
# Outline: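 Only genotypes with ≥10 input reads and ≥1 read per output were kept after Illumina sequencing of input and output libraries. These libraries were PCR-built, transcribed mutants of each subunit of a heterodimeric triplet polymerase ribozyme, each put through one triplicate in vitro selection round with frozen incubation at −7 °C, gel excision of extended constructs, streptavidin-bead capture and RT-PCR. Fitness is a logarithmic ratio of genotype enrichment to wild-type enrichment, from inverse-variance-weighted replicate averages, with the logarithm in base 2.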
row,Variant,polymerase ribozyme fitness (log ratio)
1,G17U U109A,-6.56
2,G17U U112C,-0.756
3,G17U U130A,-3.3
4,G17U U130C,-1.79
5,A18C,-2.11
6,A18C A26G G71A G93A U112C G122A,-4.45
7,A18C A27G,-5.05
8,A18C A27G A111U G128C,-6.38
9,A18C A29G G107U C124G U125C,-7.59
10,A18C A37C G127U U129A,-3.43
11,A18C A43U A121G,0.81
12,A18C A95C G128U,-5.8
13,A18C C20A U54A U96A,-3.05
14,A18C C20U C53U,-1.72
15,A18C C20U C88G G110C,-4.72
16,A18C C20U C114A,0.845
17,A18C C20U G36U C56G,-3.57
18,A18C C20U G110C,-6.35
19,A18C C22U C73A A121U,-5.5
20,A18C C28U,-5.11
21,A18C C34A C99A C123A U126A,-5.25
22,A18C C40G,-4.09
23,A18C C40U A41G C56G C70U,-4.84
24,A18C C49U C72G,-3.75

row,Variant,polymerase ribozyme fitness (log ratio)
1,A18C C53A C62U C72U C85G G122U,-4.78
2,A18C C53G G60U U116G,-2.87
3,A18C C64U U130C,-2.08
4,A18C C72A,-2.45
5,A18C C72G,-3.9
6,A18C C72G C124A U129A,-3.56
7,A18C C72U,-2.49
8,A18C C72U C73U U106A C124U,-1.79
9,A18C C88G G120A,-2.81
10,A18C C104A,-4.52
11,A18C C114G,-2.59
12,A18C C115U,-2.17
13,A18C G19A C40U C49U A50U C89U C124U,-5.69
14,A18C G19U,-5.8
15,A18C G19U G48A G58C C62G C124A,-5.33
16,A18C G35A U59C U112A,-6.14
17,A18C G39A,-3.32
18,A18C G44U,-3.35
19,A18C G47A,-2.19
20,A18C G52A,-2.7
21,A18C G61A,-2.53
22,A18C G63C,-4
23,A18C G71U,-3.18
24,A18C G71U U78G,-4.63

row,Variant,polymerase ribozyme fitness (log ratio)
1,A18C G120A,-1.48
2,A18C G128C,-5.12
3,A18C U32C A95C G117A U129C,-3.97
4,A18C U55C C62U,-3.73
5,A18C U87G C89U,-2.03
6,A18C U92C C97U,-4.36
7,A18G,-1.83
8,A18G A24G C34U G61A A111U G128U G135U,-6.04
9,A18G A24G U55A,-5.14
10,A18G A41C A43G G57U,-4.59
11,A18G A46G C72U,-4.38
12,A18G A50U C56A C79A C101U A118U C124U,-7.24
13,A18G A74C C79U,-4.7
14,A18G C31G C88U C114G,-5.82
15,A18G C49A C64U C79U G120C G128U,-3.3
16,A18G C53A A100C A103G C114A,-5.14
17,A18G C53A C72U C85G,-4.61
18,A18G C56G C114A,-4.99
19,A18G C64U G69C U78G G113C,-3.05
20,A18G C64U G113A,-1.65
21,A18G C80U U92C G120U U129C U130A,-6.4
22,A18G C89A C114G U133A,-6.53
23,A18G C123U,-1.44
24,A18G C123U U132A,-2.14

row,Variant,polymerase ribozyme fitness (log ratio)
1,A18G C124A,-0.403
2,A18G G19U C73A C79U,-1.75
3,A18G G35A G69A G117A,-5.21
4,A18G G36A U116C A118G,-2.17
5,A18G G39C,-4.37
6,A18G G39C C94A U112G C124G,-5.87
7,A18G G39U C53U G71A G120A,-4.4
8,A18G G42C C99A,-5.32
9,A18G G44A C72G,-5.19
10,A18G G45U C102U U109C U116G,-5.64
11,A18G G48A U116G,-3.25
12,A18G G57U U59C C62A C94U G117U,-5.27
13,A18G G61U C94G G113U,-3.32
14,A18G G93A,-3.21
15,A18G G113C,-1.3
16,A18G U59A A111U,-6.09
17,A18G U67A C102U C123A,-5.64
18,A18G U87G U109A,-2.3
19,A18G U92C C104U G117U C123A,-2.56
20,A18G U131A,-2.69
21,A18G U132A,-3.07
22,A18U,-2.13
23,A18U A26G C40G A43U G69A C97A U112A,-7.04
24,A18U A27G C53A G71C C85G,-8.07

row,Variant,polymerase ribozyme fitness (log ratio)
1,A18U A27G C72A C115A G120C,-3.08
2,A18U A27U C98A G110A,-7.19
3,A18U A29G G42C G110U U112G,-5.42
4,A18U A37C C101A,-4.02
5,A18U A43U A83G C89G G110U U125A,-5.8
6,A18U A74C A90U A121C U129A,-1.29
7,A18U A90C G122A,-2.49
8,A18U C20G G61A,-6.8
9,A18U C20U A50C G69U,-1.33
10,A18U C22A G113A,-3.79
11,A18U C28U A50U C98A,-7.62
12,A18U C28U G51A U59G G117C,-6.92
13,A18U C34U G61C A74C A100C G107U G110C,-7.86
14,A18U C40A C70A A121C,-5.25
15,A18U C40G C114A,-3.02
16,A18U C40U,-3.83
17,A18U C40U A46C C82A C86A C124G,-4.93
18,A18U C56U C94U A111C C114U,-5.39
19,A18U C70A G113A G122A,-4.58
20,A18U C73U U96A,-3.25
21,A18U C79A,-4.95
22,A18U C82A U92A,-4.27
23,A18U C86A C89U C123U,-3.07
24,A18U C86G G113U,-4.47

row,Variant,polymerase ribozyme fitness (log ratio)
1,A18U C94U,-3.18
2,A18U C114A,-2.02
3,A18U C114G,-4.17
4,A18U C124A U126A,-1.36
5,A18U G25C G57C C89G U92G C115U,-5.83
6,A18U G39U G48U C73U A84C,-4.34
7,A18U G42A C53G C85U C89A,-3.31
8,A18U G42U G63C A66G C123U,-4.29
9,A18U G44U C88G C89A,-2.55
10,A18U G45U G63U G71C G110C C114G C124U,-7.92
11,A18U G45U U87C A90G,-2.54
12,A18U G48U,-2.49
13,A18U G48U G52U G69U C79G,-2.76
14,A18U G52A C72A C73A U112A,-3.87
15,A18U G57U C94G U112G,-5.68
16,A18U G60A,-2.24
17,A18U G60U U130C,-1.84
18,A18U G61C U112A G122U,-6.15
19,A18U G71C C104A,-6.56
20,A18U G113C,-3.57
21,A18U G128C,-4.63
22,A18U U21C G36A C72U C114U,-4.3
23,A18U U38G G71A C89A U129A,-6.64
24,A18U U54C A83G U109A,-6.59

row,Variant,polymerase ribozyme fitness (log ratio)
1,A18U U54G C114U,-4.87
2,A18U U59A A68G A91U G120U,-6.77
3,A18U U96C U112A,-1.44
4,A18U U133G,-1.41
5,G19A A43U C49U C124U,-2.19
6,G19A A43U C49U U59A C124U,-1.73
7,G19A A43U C53U C56A,-3.04
8,G19A A43U C101A U129G,-4.15
9,G19A A95U C101U,-3.88
10,G19A A118G C124G,-1.63
11,G19A C34A C89A,-6.24
12,G19A C49G G60U C85U A111C,-2.03
13,G19A C56U,-2.34
14,G19A C62U G93U,-4.23
15,G19A C64U,-2.88
16,G19A C70G C85U C114G,-7.51
17,G19A C73U C86U U96A G110A,-5.32
18,G19A C85U,-3.47
19,G19A C88A A95C C114G,-4.8
20,G19A G36U,-3.84
21,G19A G42U G71U G122A,-3.83
22,G19A G44U G48C C49A C53A G69U C88G C104A G135C,-2.97
23,G19A G48U C49U G69U G93U,-4.49
